Measurements reported in publication doi:10.1101/2023.02.13.526773.

Experiments:
[1] = target: FLAG-tagged GFP11-CHAMP-1 fusion (N-terminal GFP11); assay: split reporter
[2] = target: mEpoR-TM2 (isotope-labelled recombinant mEpoR TM domain fragment) (mouse); assay: SDS-PAGE

Row | fold MFI over cells expressing either fusion alone [1] [fold] | stoichiometry N [2] | Substance
1 | > 4 |  | mEpoR-GFP1-10 fusion protein (domain or fragment)
2 |  | 2 | mEpoR-TM2 (isotope-labelled recombinant mEpoR TM domain fragment) (domain or fragment)
